Reference: publication PMC6875872 (The Journal of Physical Chemistry. B, 2019)

Target: the molecule itself
Experiment: SEC + other: DLS + other: TEM

B1: cowpea chlorotic mottle virus (CCMV) capsid protein (natural protein, UniProt P03601 1-190, looked up)
chain: MSTVGTGKLTRAQRRAAARKNKRNTRVVQPVIVEPIASGQGKAIKAWTGYSVSKWTASCAAAEAKVTSAITISLPNELSSERNKQLKVGRVLLWLGLLPSVSGTVKSCVTETQTTAAASFQVALAVADNSKDVVAAMYPEAFKGITLEQLTADLTIYLYSSAALTEGDVIVHLEVEHVRPTFDDSFTPVY
stoichiometry N: 60
